{"source": "patent US20260217843A1", "binders": {"B1": {"name": "positive control based on the sequences of the anti-hOX40L antibody amlitelimab (antibody, IgG4, V domains shown)", "VH": "EVQLVESGGGLVQPGGSLRLSCAASGFTFSNYAMNWVRQAPGKGLEWVSTISGSGGATRYADSVKGRFTISRDNSRNTVYLQMNSLRVEDTAVFYCTKDRLIMATVRGPYYYGMDVWGQGTTVTVSS", "VL": "DIQMTQSPSSLSASVGDRVTITCRASQSISSYLNWYQQKPGKAPNLLIYAASSLQSGVPSRFSGSGSETDFTLTISSLQPEDFATYYCQQSHSVSFTFGPGTKVDIK"}}, "key": {"[1]": {"target": "Recombinant Human OX40L Protein, His Tag (Acro Cat. IL3-H52H4) (human) (UniProt P23510)", "sequence (P23510 51-183 limits assumed)": "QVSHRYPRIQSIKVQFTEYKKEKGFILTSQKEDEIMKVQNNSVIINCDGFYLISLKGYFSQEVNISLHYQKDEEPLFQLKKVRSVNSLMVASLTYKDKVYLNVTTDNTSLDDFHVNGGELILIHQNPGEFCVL", "assay": "SPR (Biacore 8K), antibody captured, human OX40L injected, 1:1 fit"}, "[2]": {"target": "hOX40L added as soluble protein in cell assays (human) (UniProt P23510)", "sequence (P23510 51-183 limits assumed)": "as above", "assay": "cell-based or functional assay"}}}
{"binder": "B1", "values": [{"measurement": "Kd", "setting": "[1]", "value": 0.071, "unit": "nM"}, {"measurement": "koff", "setting": "[1]", "value": 0.000112, "unit": "s⁻¹"}, {"measurement": "kon", "setting": "[1]", "value": "1.58e+06", "unit": "M⁻¹ s⁻¹"}, {"measurement": "IC50, luminescence (RLU), hOX40 reporter cells with 50 ng/mL hOX40L", "setting": "[2]", "value": 1.17, "unit": "nM"}, {"measurement": "Mean IFNγ concentration, MLR + OX40L (1000 ng/ml); donor pairing 1; antibody 4 nM", "setting": "[2]", "value": 201, "unit": "pg/mL"}, {"measurement": "Mean IFNγ concentration, MLR + OX40L (1000 ng/ml); donor pairing 1; antibody 20 nM", "setting": "[2]", "value": 41.4, "unit": "pg/mL"}, {"measurement": "Mean IFNγ concentration, MLR + OX40L (1000 ng/ml); donor pairing 1; antibody 100 nM", "setting": "[2]", "value": 145, "unit": "pg/mL"}, {"measurement": "Mean IFNγ concentration, MLR + OX40L (1000 ng/ml); donor pairing 3; antibody 4 nM", "setting": "[2]", "value": 1050, "unit": "pg/mL"}, {"measurement": "Mean IFNγ concentration, MLR + OX40L (1000 ng/ml); donor pairing 3; antibody 20 nM", "setting": "[2]", "value": 520, "unit": "pg/mL"}, {"measurement": "Mean IFNγ concentration, MLR + OX40L (1000 ng/ml); donor pairing 3; antibody 100 nM", "setting": "[2]", "value": 75.4, "unit": "pg/mL"}, {"measurement": "Mean IFNγ concentration, MLR + OX40L (1000 ng/ml); donor pairing 4; antibody 4 nM", "setting": "[2]", "value": 1170, "unit": "pg/mL"}, {"measurement": "Mean IFNγ concentration, MLR + OX40L (1000 ng/ml); donor pairing 4; antibody 20 nM", "setting": "[2]", "value": 424, "unit": "pg/mL"}, {"measurement": "Mean IFNγ concentration, MLR + OX40L (1000 ng/ml); donor pairing 4; antibody 100 nM", "setting": "[2]", "value": 161, "unit": "pg/mL"}, {"measurement": "Mean IFNγ concentration, MLR + OX40L (1000 ng/ml); donor pairing 5; antibody 4 nM", "setting": "[2]", "value": 1350, "unit": "pg/mL"}, {"measurement": "Mean IFNγ concentration, MLR + OX40L (1000 ng/ml); donor pairing 5; antibody 20 nM", "setting": "[2]", "value": 780, "unit": "pg/mL"}, {"measurement": "Mean IFNγ concentration, MLR + OX40L (1000 ng/ml); donor pairing 5; antibody 100 nM", "setting": "[2]", "value": 878, "unit": "pg/mL"}, {"measurement": "Mean IFNγ concentration, MLR + OX40L (1000 ng/ml); donor pairing 6; antibody 4 nM", "setting": "[2]", "value": 780, "unit": "pg/mL"}, {"measurement": "Mean IFNγ concentration, MLR + OX40L (1000 ng/ml); donor pairing 6; antibody 20 nM", "setting": "[2]", "value": 279, "unit": "pg/mL"}, {"measurement": "Mean IFNγ concentration, MLR + OX40L (1000 ng/ml); donor pairing 6; antibody 100 nM", "setting": "[2]", "value": 202, "unit": "pg/mL"}, {"measurement": "Mean IFNγ concentration, MLR + OX40L (1000 ng/ml); donor pairing 8; antibody 4 nM", "setting": "[2]", "value": 17.3, "unit": "pg/mL"}, {"measurement": "Mean IFNγ concentration, MLR + OX40L (1000 ng/ml); donor pairing 8; antibody 20 nM", "setting": "[2]", "value": 10.8, "unit": "pg/mL"}, {"measurement": "Mean IFNγ concentration, MLR + OX40L (1000 ng/ml); donor pairing 8; antibody 100 nM", "setting": "[2]", "value": 92.5, "unit": "pg/mL"}]}
